Measurements taken from the nanobody polyreactivity screen of Harvey et al. (2022).

assay: yeast display, Sf9 membrane polyspecificity reagent, FACS + sequencing; frameworks hold sequencing errors
Summary of the method: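 After 36–48 hours of galactose induction, yeast (Saccharomyces cerevisiae BJ5465) displaying a synthetic nanobody library were stained at 4 °C for 1 hour with 10% biotinylated, detergent-solubilized Sf9 membrane reagent. Streptavidin microbeads enriched the stained cells before FACS sorting into low and high (top ~1%) gates on anti-HA and streptavidin fluorescence. Each clone's polyreactivity label reflects its gate of origin.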

Sequence | polyreactivity (PSR sort gate)
QVQLVQSGGGLVHAGGSLRLSCAGSGSIFGTNAMGWYRQAPGKERELVATITSAGSTYYADSVKGRFTISRDYAKITFYLQMNSLKPEDTAVYYCARQATGYVYREYDYWGQGTQVSVSS | low polyreactivity
QVQLVQSGGGLVQAGGILRLSCAASVSTLFGYAMGWYRQAPGKERELVAAINTGGSTNDADSVKGRFTISRDNAKNTVYVQMNSLKPEDTAVYYCAADYEWDAFAYDYWGHGTQVTVSS | low polyreactivity
QVQLVQSGGGLVQAGGRLRLSCAASGRIFYYYTMGWYRQAPGKERELVAVISRSGDRTYYADSVKGRFTISRDIAKNTVYLQMNSLKPEDTAVYYCATRWSSARMDYCGQGTQVTVSS | high polyreactivity
QVQLVQSGGGLVQAGGSHRLSCAASGSTFKPYALGWYRQSPGKETELVAASSRGTRTYADSVKGRFTISRDNAKNTVYLQMNSVKPEDTAVYYCAAEWRLTFGYHYEFDYWGQGTQVTVSS | low polyreactivity
QVQLVQSGGGLVQAGGSLRLSCAASGFTFIRYAMGWYRQAPGKERELVAAIRGTGTSTYYADSVKGRFTISRDIAKNTVYLQMNSLKPEDTAVYYCNAGTYYRSYGYDYWGQGTQVTVSS | low polyreactivity
QVQLVQSGGGLVQAGGSLRLSCAASGRIFRTYAMGWYRQAPGKERELVAAISSRSGSTYYADSVKGRFTISRDNAKNTVYLQMQSLKPEDTAVYYCASRYGYRYADKGSEYGYWGQGTLVTVSS | high polyreactivity
QVQLVQSGGGLVQAGGSLRLSCAASGSIFTPNAMGWYRQAPGKERELVAAISGRTGTTYYADSVKGRFTISRDNAKNTVYLQMHSLKPEDTAVYYCAKSSGRYRSDYRGQGTQVTVSS | high polyreactivity
QVQLVQSGGGLVQAGGSLRLSCAASGSTFARNAMGWYRQAPGKERELVAAISSSGGRTYYADSVKGRFTISRDHAKNSVYLQMNSLKPEYTEVYYCAAAFSLGMYWGQGTQGTVSS | high polyreactivity
QVQLVQSGGGLVQAGGSLRLSCAASGSTFPTNAMGWYRQAPGKERELVAAITSTGSTYADSVKGRFTISRDNAKNTVYLQMNSLKPEDTAVYYCAADTQWTTPYDYWGQGTQVTVSS | low polyreactivity
QVQLVQSGGGLVQAGGSLRLSCAASGSTFRRKVMGWYRQAPGKETELVAAISWSGTSTNYADSEKGRFTISRDNAKNTVYLQMNSVKPEDTAVYYCATQSLYYRWGLDYWGQGTEVTVSS | high polyreactivity
QVQLVQSGGGLVQAGGSLRLSCAASGSTFTPNDMGWYRQAPGKERELVAAIDWSGGSTYYADSVKGRFTISRDNAKNTVYLQMNSLKPEDTAVYYYNADSSKFYSHGEYEYWGQGTQVTVSS | low polyreactivity
QVQLVQSGGGLVQAGGSLRLSCAASGSTIVTNAMGWYRQAPGKERELVAANTSVGSTYYADSVKGRFTISRDNAKNTVYLQMNSLKPEDTAVYYCNVVYRDQYNYWGQGTQVTVSS | low polyreactivity
QVQLVQSGGGLVQAGGSLRLSCAASGTTFNRNAMGWYRQAPGKEMELVDTITSAGSTYYADSVKGRFTISLDNAKNTVYLHMNSLKPEDTAVYYCAKGHQPGHVFHQEYGYYYWGQGTQGTVSS | low polyreactivity
QVQLVQSGGGLVQAGGSLRLSCADSGSIFEYYTMGWYRQAPGKERELVAAISDGGSTYYADSVKGRFTISRDNAKNTVYLQMYSLKPEDTAVYYCAAEYQQDFWVAVDYWGQGTQVSVSS | low polyreactivity
QVQLVQSGGGLVQAGGSLRLSCAGSGYILQINAMGWYRQAPGKERELVAAISISGGNTYYADSVKGRFTNSRDNAKNTVYLQMNSLKPEDSAVYYCAAYRFYSYLVRYGLLLAYYYWGQGTQVTVSS | low polyreactivity
QVQLVQSGGGLVQAGGSLRLTCAASGRTFVVYAMGWYRQAPGKERQLVASISSIGEITNYADSVKGRFTISRDYAKNTVYLQMNSLKQEDTAVYYCTAPICGSYNTRRAAEYDYWGQGTQVTVSS | low polyreactivity
QVQLVQSGGGLVQAVGSLRLICADSGSIFVPNAMGWYRQALGKERELVAAITYSGVDTYYADSVKGRFTISRDNAKNSVYLQMNSLKPEDTAVYYCAADNGRVGYDYWGLGTQVTVSS | low polyreactivity
QVQLVQSGGGLVQAVGSLRLSCAASGRTFPYYTMGWYRQARGKERELVAAINSSGGRTYYADSVKGRFTISRDNAKNTVYLQMNSLKPEDTAVYYCAKRGYYKYDWGQGTQVTVSS | high polyreactivity
QVQLVQSVVGLVQAGRRLRLSSAASGRIFFYNAMGWYRHAPGKERELVAGISRSGTSTYYADSVKGRFTISRDNAKNTVYLHMNSLKPEDTAVYYCAAGTFYYWLSYDYWGQGTQVTVSS | low polyreactivity
QVQLVQTGGGLVQAGGSLRLSCAASGSTFWYNAMGWSRQAPGKERELVARISYSGGSTYYADSVKGRFTISRDNAKNTVYLQMNCLKPEDTAVEYCAGRRPYKYDYWGQGTQVTVSS | high polyreactivity
QVQLVVSGGGLDQARGSLRLSCAASGSNFFYYAMGWYRQAPWKERELVAGINWSGGSTYADSVKGRFTISRDNAKNTVYLQMNSLKPEDTAVYYCAAKFYSERSSYHYWGQGTQVTVSS | low polyreactivity
QVQLVVSGGGLVQAGGRLRLSCAASGFTFRRNARGWYRQAPGKVWELVAGITSSGTSTYYADSVKGRFTISRDNAKNTVNLQMNSLKPEDTAVYYCNADTPRTGGYWGQGTQVTVSS | high polyreactivity

Sequence | polyreactivity (PSR sort gate)
QVQLVVSGGGLVQAGGRLRLSCAATGSTFSVNAMGWSRQAPGKERELVAAITRSGGSTYYADSVKGRFTFSRDNAKNSVYLQLNSLKPEDTAVYYCAAEIYPLGEYWGQGTQVTVSS | low polyreactivity
QVQLVVSGGGLVQAGGSLRLSCAASGGTFQHNTMGWYRQAPGKERELVAAIRWSDGSTYYADSVKGRFTISRDNAKTTVYLQMNSLKPEDTSVYYCNRAYTASYIPRVGFWGQGTQVTVSS | high polyreactivity
QVQLVVSGGGLVQAGGSLRLSCAASGRIFRAYAMGWYRQAPGQERELVADITSGSGSTYYADSVKGRFTISRDNAKNTVYLQMNSLKPEDTAVYYCAADVFIRDWEYYYWGQGTQVTVSS | low polyreactivity
QVQLVVSGGGLVQAGGSLRLSCAASGRIFVYNAMGWYRQAPGKERELVATITSGGSTYYADSVKGRFTISRDNAKNTVYLQMNSLKPEDTAVYYCAARRWYVHYFAYGYWGQGTQVTVSS | low polyreactivity
QVQLVVSGGGLVQAGGSLRLSCAASGRTFPRYAMGWYRQAPGKERELVASISRRGGSTYYADSVKGRFTISRDNAKNTVYLQMNSLKPEDTAVYYCNAQGYPYKQSTGDFWGQGTQVTVSS | high polyreactivity
QVQLVVSGGGLVQAGGSLRLSCAASGSIFLVNVMGGDRQAPGKERELVAAITWSGGRTYYADSVKGRFTISRDNAKNTVYLPRNSRLPEDTAVYYCAAQTPRFVWQKGPLDSEDYWGQGTQVTVSS | high polyreactivity
QVQLVVSGGGLVQAGGSLRLSCAASGSLFTPYAMGWYRQAPGKERELVATISWSGGRTYYADSVKGRFTISRDNAKNPVYLQMNSLKPEDTAVYYCAARGYSSEYDYWGQGTQVTVSS | high polyreactivity
QVQLVVSGGGLVQAGGSLRLSCAASGSTFVSNAMGWYRQAPGQERELVAAITSGGSTDYADSVKGRCTISRDNAKNTVYVQMNSLQPEDTAVYYGAADPEWHSDQPRVGYVGYNYWGQGTQVNVSS | low polyreactivity
QVQLVVSGGGLVQAGGSLRLSCAASGYIFDYNAMGWYIQSPGKERELVAAINWSGGSTYYADSVKGRFTISRDNAKNTVYLQMNSLKPEDTAVYYCNKLIYGIYYPERYAYDYWGQGTQVTVSS | low polyreactivity
QVQLVVSGGGLVQAGGSLRLSCAASGYIFYANAMGWYRQAPGKEWELVAAITQSGGRTYYADSVKGRFTISRDNAKNTVYLQMNSLKPEDTAVYYCAAQPWRALGYYYWGQGTQVTVSS | high polyreactivity
QVQLVYSGGGLVQAGGSLRLSCAASGRTFARYAMGWYIQAPWKERELVAAITRSGGSTTYADSVKGLFTISRDNAKNTVYVQLYSLKPVYTAVYFCASSTSLRLDYWGQGTQVTVSS | high polyreactivity
QVQMQESGGGLEQAGGSLRLSCAASGNISGFGYMGWYRQAPGKEREFVAAISYGTSTYYADSVKGLFTISRDNAKNTVYLQINSLKPEDTAVFYCAALCLISKHHHYWGEGTQVTVSS | high polyreactivity
QVQNVESGGGLVQARGSLRLSCAASGRTFTESDMGRYRQAPGKERELVAAITSVGSTYYADSVKGRFTISRYNAKNTVYLQMNSLKPEDTAVYYCAAEWQNTNMDYWGQGTQVTVSS | low polyreactivity
QVQPQERGGGPVQACGSLRLSCAARGNILDADILGWYRLVPGKEGELVASITDGGSTNYAESVKGRFTLSRDNAINTVYHHMNSLKPEDTAVYYCAANARSHAEHDYWGQGTQVTVSS | low polyreactivity
QVQQHESGGGLVQAGGSLRLTCAASGTISESGLMGWYRQAPGKERELVAGISSGGITNYADSVKGRFTISRDIAINTVYLQMNSPKPEDTAEYWGQGSQVTVSS | low polyreactivity
QVQQQESGGGLVQAGGSLRLSCAASGTIFQLTFMGRYRQAPGKERELVASIDYGGNTNYADSVKGRFTISRDNAKNNVYLQMNSLKPEDTAVYYCAASSDSWTTHPYWGQGTHVTVSS | low polyreactivity
QVQREESGGGLVQAGGSLRLSCAASGITFKWYAMGWYRQAPGKEREFVAIISTRGGSTYYADSVKGRFTISRDNAKNTVYLQMNSLKPVDTAVYYCNAVRSRVVHRRGDFDYWGQGTQVTVSS | high polyreactivity
QVQREESGGGLVQAGGSLRLSCVASGSTFRYYAMGWYRQSPGTERELVAAITWRGTSTYYADSVKGRFTISRDNAKNTVYLQMNSLKPEDTAVYYCNAAGYWPATGDYWGQGTQVTVSW | high polyreactivity
QVQRVESGGCLVQAGGSLRLSCAASGIIFGDNVRGWYRQSPGKERQLVAAITSDGSTNYADSVKGRFTISSDNEKNNVYLQMNSLKPEDTAVYYCNVSASYYSPDPKVLVRYDYWGQGSQVTVSS | low polyreactivity
QVQRVESGGGIVQAGVSLSLSCPASGRIFTSNAMGWYRQEPGKERELVAAIRWSDGSTYYADSVKGRFTISRDNAKNTVYLQMNSLKPEDTAVYYCAADTRTSYYNDDYVFWGQGTQVTVSS | low polyreactivity
QVQRVESGGGLVPAGGSLRLSCAASGSIFYYNAMGWYRQAPGKERELVAAISWGDGITYYADSVKGRFTISRDNAKKTVYVQMNSLKPEDTAVYYCAVDYYYLPYEYWGQGTQVTVSS | high polyreactivity
